This is an account of results in patent US20230124669A1 (ADAGENE, published 2023).

The target of assay [1] is T1, mouse CD137 expressed on cells (mouse, UniProt P20334 24-256).
T1 construct: whole, on cells
T1 sequence (looked up): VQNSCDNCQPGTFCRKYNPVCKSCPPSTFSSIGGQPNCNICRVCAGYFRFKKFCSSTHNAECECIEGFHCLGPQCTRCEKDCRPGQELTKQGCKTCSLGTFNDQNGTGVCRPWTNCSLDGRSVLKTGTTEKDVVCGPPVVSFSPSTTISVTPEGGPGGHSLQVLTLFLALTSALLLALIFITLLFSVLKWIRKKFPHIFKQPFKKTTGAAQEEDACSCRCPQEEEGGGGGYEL
Briefly: told in words; cross-reactivity by flow cytometry on antigen-expressing cells (FIG. 13). On the procedure:
(§1) The affinity of antibodies was also assessed against human, monkey and mouse CD137 or PDL1 that were transiently expressed on the surface of yeast or HEK293F cells. Briefly, yeast or HEK293F cells were transfected with a plasmid expressing human, monkey or mouse CD137 or PDL1. After 48 hours, the transfected cells were harvested and then washed. Cells were then incubated with IgGs (each at 100 nM) at 4° C. in the shaking bed for 1 hour shaking at 300 rpm, protected from light. For simultaneously binding, cell were incubated with biotinylated human CD137 or PDL1 protein fused with human Fc fragment, and SA-PE (streptavidin, phycoerythrin conjugated). For cross-reactivity, cells were incubated with Alexa Fluor 647 conjugated mouse anti-human Fc antibodies. The mixtures were incubated at 4° C. in the shaking bed for 30 minutes shaking at 300 rpm, protected from light. The cells were washed once prior to analysis by flow cytometry (Beckman CytoFlex).

The target of assay [2] is HER2 on HER2-positive tumor cells (SKOV3) (UniProt P04626 23-1255). Briefly: cell-based or functional assay.
Assay [3] deals with T2, human CD3 (E and δ chain heterodimer) fused with human Fc fragment (human, UniProt P07766 23-126; P04234 22-105).
T2 construct: ELISA coating antigen; the text prints 'E and 6 chain heterodimer', read as epsilon and delta
T2 sequence (P07766 23-126, stated change not applied, chain 1 of 2): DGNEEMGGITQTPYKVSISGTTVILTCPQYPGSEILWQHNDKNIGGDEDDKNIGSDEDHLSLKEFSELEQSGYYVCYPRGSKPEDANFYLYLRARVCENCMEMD
T2 sequence (P04234 22-105, stated change not applied, chain 2 of 2): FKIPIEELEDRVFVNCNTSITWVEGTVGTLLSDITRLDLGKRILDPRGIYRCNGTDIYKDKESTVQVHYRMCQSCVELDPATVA
Briefly: ELISA, plate coated with 2 µg/mL antigen-human Fc fusion, serially diluted IgG. Here is the method:
2 μg/mL of human HER2 or CD3 (E and 6 chain heterodimer) fused with human Fc fragment, were prepared and used to coat the ELISA plate at 2-8′C overnight. After washing and blocking, 50 μL serial diluted IgGs were added and incubated at 37′C for 1 hour. Plates were washed three times and then incubated with 50 μL/well TMB substrate at room temperature for about 20 minutes. Absorbance at 450 nm was measured after the reaction was stopped. The data was analyzed by GraphPad Prism 6 with nonlinear fitting.

A further assay addresses T3, Human PDL1 (SPR analyte) (human, UniProt Q9NZQ7 19-238, limits assumed).
T3 construct: also called PDL1H
Briefly: SPR (Biacore T200), antibody captured by anti-human IgG on CM5 chip, antigen injected as analyte, 1:1 Langmuir fit. On the procedure:
(§2) Biacore T200 (GE Healthcare) was used as a high performance system for real-time biomolecular interaction analysis, using surface plasmon resonance technology (“SPR”). During the measurement, anti-human IgG monoclonal antibody from the Human Antibody Capture Kit provided by Biacore was immobilized on CM5 chips, and IgG sample was injected onto sensor chip. Analytes were injected onto IgG captured flow cell for binding kinetic analysis in HBS-EP buffer.

Assay [4] deals with T4, Human CD137 (SPR analyte) (human, UniProt Q07011 24-186, limits assumed).
T4 construct: also called CD137H
The assay is described as above. Here is the method: as §2

Assay [5] concerns the target T1, mouse CD137 expressed on cells. Briefly: flow cytometry, antigen transiently expressed on yeast or HEK293F cells, IgG at 100 nM, Alexa Fluor 647 anti-human Fc detection (FIG. 13). On the procedure: as §1
The target in assay [6] is T5, mouse PDL1 expressed on cells (mouse, UniProt Q9EP73 19-290).
T5 construct: whole, on cells
T5 sequence (Q9EP73 19-290): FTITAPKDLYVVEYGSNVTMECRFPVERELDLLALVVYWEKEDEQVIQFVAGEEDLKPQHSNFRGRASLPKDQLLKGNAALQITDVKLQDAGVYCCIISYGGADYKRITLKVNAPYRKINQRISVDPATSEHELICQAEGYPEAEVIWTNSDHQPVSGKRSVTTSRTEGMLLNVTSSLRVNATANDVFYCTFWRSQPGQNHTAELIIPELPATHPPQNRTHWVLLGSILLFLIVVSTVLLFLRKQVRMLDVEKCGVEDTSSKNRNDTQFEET
Described as above. On the procedure: as §1

In assay [7] the target is T5, mouse PDL1 expressed on cells. Briefly: told in words; cross-reactivity by flow cytometry on antigen-expressing cells (FIG. 13). On the procedure:
as §1

T3 sequence (Q9NZQ7 19-238 limits assumed): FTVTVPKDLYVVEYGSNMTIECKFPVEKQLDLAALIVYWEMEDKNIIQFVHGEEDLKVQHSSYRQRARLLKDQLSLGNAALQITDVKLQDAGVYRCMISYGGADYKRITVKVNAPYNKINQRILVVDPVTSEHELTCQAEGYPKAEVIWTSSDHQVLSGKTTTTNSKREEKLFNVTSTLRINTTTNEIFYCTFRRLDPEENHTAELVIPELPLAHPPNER

B1: anti-CD137 Fv (antibody, V domains shown)
VH: EVQLVESGGGLVQPGGSLRLSCAASGFSLSTGGVGVGWIRQAPGKGLEWLALIDWADDKYYSPSLKSRLTISRDNSKNTLYLQLNSLRAEDTAVYYCARGGSDTVIGDWFAYWGQGTLVTVSS
VL: DIQLTQSPSSLSASVGDRVTITCRASQSIGSYLAWYQQKPGKAPKLLIYDASNLETGVPSRFSGSGSGTDFTLTISSLQPEDFATYYCQQGYYLWTFGQGTKVEIKR
notes: Named only as the anti-CD137 Fv used in the bispecific and parental antibodies; also called CD137 VH / CD137 VL
On to B1, for which, in assay [1], the binding result is given as “binds”.

B2: TY24052 (bispecific antibody)
heavy: not shown
chain: not shown
light: EVGSYPYDDPDCPSHDSDCDNSGRSAGGGGTPLGLAGSGGSQAVVTQEPSLTVSPGGTVTLTCGSSTGAVTTSNYANWVQQKPGQAPRGLIGGTNKRAPGVPARFSGSLLGGKAALTLSGAQPEDEAEYYCALWYSNLWVFGGGTKLTVLRGGGGSGGGGSGGGGSGGGGSEVQLVESGGGLVQPGGSLRLSCAASGFTFNTYAMNWVRQAPGKGLEWVGRIRSKYNNYATYYADSVKGRFTISRDDSKNTLYLQMNSLRAEDTAVYYCVRHGNFGNSYVSWFAYWGQGTLVTVSSEPKSSDKTHTCPPCPAPELLGGPSVFLFPPKPKDTLMISRTPEVTCVVVDVSHEDPEVKFNWYVDGVEVHNAKTKPREEQYASTYRVVSVLTVLHQDWLNGKEYKCKVSNKALPAPIEKTISKAKGQPREPQVYTDPPSRDELTKNQVSLTCLVDGFYPSDIAVEWESNGQPENCYKTTPPVLDSDGSFFLYSKLTVDKSRWQQGNVFSCSVMHEALHNHYTQDSLSLSPGK
notes: Masked, cleavable version of TY24051, uncleaved; IgG1 Fc with TYM13 mutations and N297A; also called SAFEbody
Turning to B2, in assay [2], the “EC50 of T-cell mediated killing of SKOV3 cells, fold increase compared with TY24051” value is around 800 fold. Besides, in assay [3], the binding result is recorded as “binds”.

B3: TY22121 (bispecific antibody, human IgG1, kappa)
heavy: DIQLTQSPSSLSASVGDRVTITCRASQSIPSFLNWYQQKPGKAPKLLIYAASSLQSGVPSRFSGSGSGTDFTLTISSLQPEDFATYYCQHYISWPRQFTFGQGTKVEIKRTVAAPSVFIFPPSDEQLKSGTASVVCLLNNFYPREAKVQWKVDNALQSGNSQESVTEQDSKDSTYSLSSTLTLSKADYEKHKVYACEVTHQGLSSPVTKSFNRGEC
light: not shown
notes: Morrison format: anti-PDL1 Fab, anti-CD137 scFv at the C-terminus of the Fc; IgG1; heavy chain = VH-CH1-hinge-CH2-CH3-linker-scFv; also called PDL1 × CD137 bispecific antibody, format TYF01
As for B3, the Kd in the assay with Human PDL1 (SPR analyte) was 6.9 nM; in assay [4], 14.1 nM. Moreover, the binding result in assay [5] and in assay [6] was “binds” throughout.

B4: TY22148 (bispecific antibody, human IgG1, kappa)
heavy: DIQLTQSPSSLSASVGDRVTITCRASQSIPSFLNWYQQKPGKAPKLLIYAASSLQSGVPSRFSGSGSGTDFTLTISSLQPEDFATYYCQHYISWPRQFTFGQGTKVEIKRTVAAPSVFIFPPSDEQLKSGTASVVCLLNNFYPREAKVQWKVDNALQSGNSQESVTEQDSKDSTYSLSSTLTLSKADYEKHKVYACEVTHQGLSSPVTKSFNRGEC
light: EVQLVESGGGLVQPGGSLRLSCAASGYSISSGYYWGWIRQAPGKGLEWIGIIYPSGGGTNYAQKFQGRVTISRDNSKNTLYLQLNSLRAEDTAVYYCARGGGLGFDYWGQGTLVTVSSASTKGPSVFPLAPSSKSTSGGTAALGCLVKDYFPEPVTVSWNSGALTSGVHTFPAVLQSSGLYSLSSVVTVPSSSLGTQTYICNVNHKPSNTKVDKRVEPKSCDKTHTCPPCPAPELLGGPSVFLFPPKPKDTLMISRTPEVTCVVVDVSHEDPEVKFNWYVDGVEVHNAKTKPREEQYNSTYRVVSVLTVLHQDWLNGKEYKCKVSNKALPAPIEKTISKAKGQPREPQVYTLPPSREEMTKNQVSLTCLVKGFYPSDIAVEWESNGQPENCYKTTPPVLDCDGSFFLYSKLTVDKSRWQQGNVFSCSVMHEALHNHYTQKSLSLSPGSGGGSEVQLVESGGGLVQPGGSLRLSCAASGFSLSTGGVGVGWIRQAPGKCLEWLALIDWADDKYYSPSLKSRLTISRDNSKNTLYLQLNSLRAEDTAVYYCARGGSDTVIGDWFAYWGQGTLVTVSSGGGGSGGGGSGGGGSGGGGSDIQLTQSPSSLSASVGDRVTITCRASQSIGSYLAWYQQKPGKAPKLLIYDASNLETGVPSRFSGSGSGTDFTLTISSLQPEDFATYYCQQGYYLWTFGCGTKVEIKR
notes: Morrison format: anti-PDL1 Fab, anti-CD137 scFv; IgG1 with N390C:S400'C; also called PDL1 × CD137 bispecific antibody, format TYF02
With B4, the Kd with Human PDL1 (SPR analyte) was found to be 7.7 nM; in assay [4] it was 6.7 nM. In addition, the binding result in assay [5] and in assay [6] was “binds” throughout.

B5: TY24051 (bispecific antibody)
heavy: not shown
chain: not shown
light: QAVVTQEPSLTVSPGGTVTLTCGSSTGAVTTSNYANWVQQKPGQAPRGLIGGTNKRAPGVPARFSGSLLGGKAALTLSGAQPEDEAEYYCALWYSNLWVFGGGTKLTVLRGGGGSGGGGSGGGGSGGGGSEVQLVESGGGLVQPGGSLRLSCAASGFTFNTYAMNWVRQAPGKGLEWVGRIRSKYNNYATYYADSVKGRFTISRDDSKNTLYLQMNSLRAEDTAVYYCVRHGNFGNSYVSWFAYWGQGTLVTVSSEPKSSDKTHTCPPCPAPELLGGPSVFLFPPKPKDTLMISRTPEVTCVVVDVSHEDPEVKFNWYVDGVEVHNAKTKPREEQYASTYRVVSVLTVLHQDWLNGKEYKCKVSNKALPAPIEKTISKAKGQPREPQVYTDPPSRDELTKNQVSLTCLVDGFYPSDIAVEWESNGQPENCYKTTPPVLDSDGSFFLYSKLTVDKSRWQQGNVFSCSVMHEALHNHYTQDSLSLSPGK
notes: Anti-HER2 Fab arm and anti-CD3 scFv arm, IgG1 Fc with TYM13 mutations and N297A; also called HER2×CD3 bispecific T-cell-engaging antibody; parental bispecific Fab X scFv in IgG1
Turning to B5, the binding result in assay [3] is recorded as “binds”.

B6: anti-PDL1 Fv (antibody, V domains shown)
VH: EVQLVESGGGLVQPGGSLRLSCAASGYSISSGYYWGWIRQAPGKGLEWIGIIYPSGGGTNYAQKFQGRVTISRDNSKNTLYLQLNSLRAEDTAVYYCARGGGLGFDYWGQGTLVTVSS
VL: DIQLTQSPSSLSASVGDRVTITCRASQSIPSFLNWYQQKPGKAPKLLIYAASSLQSGVPSRFSGSGSGTDFTLTISSLQPEDFATYYCQHYISWPRQFTFGQGTKVEIKR
notes: Named only as the anti-PDL1 Fv used in the bispecific and parental antibodies; also called PDL1 VH / PDL1 VL
Take B6: the binding result in assay [7] is given as “binds”.
